This passage reports Km results from paper PMC6017673, “Functional Characterization of the Saccharomyces cerevisiae Equilibrative Nucleoside Transporter 1 (ScENT1)” (Molecules : A Journal of Synthetic Chemistry and Natural …, 2018).

Holding throughout (assay): purified protein
Substrate in series [1]: O=c1ccn([C@@H]2O[C@H](CO)[C@@H](O)[C@H]2O)c(=O)[nH]1
In kind it is biochemical, Saccharomyces cerevisiae. The conditions noted are these: labelled compound; purified transporter in proteoliposomes.

Substrate in series [2]: Nc1ccn([C@@H]2O[C@H](CO)[C@@H](O)[C@H]2O)c(=O)n1
Conditions: labelled compound; purified transporter in proteoliposomes.

Substrate in series [3]: O=c1ccn([C@@H]2O[C@H](COP(=O)(O)OP(=O)(O)OP(=O)(O)O)[C@@H](O)[C@H]2O)c(=O)[nH]1
In kind it is biochemical, Saccharomyces cerevisiae. Conditions: labelled compound, purified transporter in proteoliposomes.

B1: ScENT1 (FUN26) (Saccharomyces cerevisiae S288C) (protein)
chain: MSTSADTDTIKKPILAVPEPALADTHSEEISRSGEEHESENNEHSDEEGDNYSEREQSVSTEPLDTLPLRKKLKNLSYITFFAIGIGLLWPWNCILSASQYFKHDIFKDTSIWAKIFTSSMMSFSTISSMLFNIYLAKRQYKYSRRVINGLVWEIIVFTVMCFFTILHFLLPKWFNFMFIMMLVVISSMGTAMTQNGIMAIANVFGSEYSQGVMVGQAVAGVLPSLVLFALAFIENSSVSTTGGILLYFFTTTLVVTICVVMFSVSKISRKVNENWNVEDGHITDVLLGSLRSNEEEIRIVGRIDQMEDEDHRRTNGTRDDNDEGEELQLKVPFEVLFAKLKYLVLSIFTTFVVTLVFPVFASATYVTGLPLSNAQYIPLIFTLWNLGDLYGRVIADWPMFRDQKFTPRKTFIYSLLRVAAIPLFLMFTAITSSSSGDEEHNGSVIVDLCYMLLQFLFGVTNGHVISMSFMKVPEQLDNDDEKEAAGGFTNIFVSTGLALGSIISYVFVFIIDFIIR
notes: full-length, poly-His tagged (TALON, SEC), overexpressed in S. cerevisiae W303-delta-pep4, DDM-solubilised, reconstituted in proteoliposomes
As a reminder, the Km is the substrate concentration at which the rate is half of its maximum. Take B1: the Km in “purified protein [1]” turned out to be 0.327 µM; in the series “purified protein [2]” it was 0.195 µM.

B2: ScENT1 (FUN26) (Saccharomyces cerevisiae S288C; F249I) (protein)
chain: MSTSADTDTIKKPILAVPEPALADTHSEEISRSGEEHESENNEHSDEEGDNYSEREQSVSTEPLDTLPLRKKLKNLSYITFFAIGIGLLWPWNCILSASQYFKHDIFKDTSIWAKIFTSSMMSFSTISSMLFNIYLAKRQYKYSRRVINGLVWEIIVFTVMCFFTILHFLLPKWFNFMFIMMLVVISSMGTAMTQNGIMAIANVFGSEYSQGVMVGQAVAGVLPSLVLFALAFIENSSVSTTGGILLYIFTTTLVVTICVVMFSVSKISRKVNENWNVEDGHITDVLLGSLRSNEEEIRIVGRIDQMEDEDHRRTNGTRDDNDEGEELQLKVPFEVLFAKLKYLVLSIFTTFVVTLVFPVFASATYVTGLPLSNAQYIPLIFTLWNLGDLYGRVIADWPMFRDQKFTPRKTFIYSLLRVAAIPLFLMFTAITSSSSGDEEHNGSVIVDLCYMLLQFLFGVTNGHVISMSFMKVPEQLDNDDEKEAAGGFTNIFVSTGLALGSIISYVFVFIIDFIIR
notes: as for B1
With B2, the Km in the series “purified protein [3]” amounted to 0.13 µM; in “purified protein [2]” it was 0.452 µM.

B3: ScENT1 (FUN26) (Saccharomyces cerevisiae S288C; L390A) (protein)
chain: MSTSADTDTIKKPILAVPEPALADTHSEEISRSGEEHESENNEHSDEEGDNYSEREQSVSTEPLDTLPLRKKLKNLSYITFFAIGIGLLWPWNCILSASQYFKHDIFKDTSIWAKIFTSSMMSFSTISSMLFNIYLAKRQYKYSRRVINGLVWEIIVFTVMCFFTILHFLLPKWFNFMFIMMLVVISSMGTAMTQNGIMAIANVFGSEYSQGVMVGQAVAGVLPSLVLFALAFIENSSVSTTGGILLYFFTTTLVVTICVVMFSVSKISRKVNENWNVEDGHITDVLLGSLRSNEEEIRIVGRIDQMEDEDHRRTNGTRDDNDEGEELQLKVPFEVLFAKLKYLVLSIFTTFVVTLVFPVFASATYVTGLPLSNAQYIPLIFTLWNLGDAYGRVIADWPMFRDQKFTPRKTFIYSLLRVAAIPLFLMFTAITSSSSGDEEHNGSVIVDLCYMLLQFLFGVTNGHVISMSFMKVPEQLDNDDEKEAAGGFTNIFVSTGLALGSIISYVFVFIIDFIIR
notes: as for B1
Turning to B3, the Km in the series “purified protein [1]” was 0.215 µM; in “purified protein [3]” (extrapolated beyond tested concentrations, not saturated), 2.92 µM.
